Experimental data from patent publication US20250313625A1 (ELPISCIENCE SUZHOU BIOPHARMA, published 2025).

T1: hFc tagged human LAG3 ECD recombinant protein (human, UniProt P18627 23-450)
T1 construct: range 23-450; also called biotin labelled hFc tagged human LAG3 ECD; not shown: human IgG Fc tag
T1 sequence (looked up): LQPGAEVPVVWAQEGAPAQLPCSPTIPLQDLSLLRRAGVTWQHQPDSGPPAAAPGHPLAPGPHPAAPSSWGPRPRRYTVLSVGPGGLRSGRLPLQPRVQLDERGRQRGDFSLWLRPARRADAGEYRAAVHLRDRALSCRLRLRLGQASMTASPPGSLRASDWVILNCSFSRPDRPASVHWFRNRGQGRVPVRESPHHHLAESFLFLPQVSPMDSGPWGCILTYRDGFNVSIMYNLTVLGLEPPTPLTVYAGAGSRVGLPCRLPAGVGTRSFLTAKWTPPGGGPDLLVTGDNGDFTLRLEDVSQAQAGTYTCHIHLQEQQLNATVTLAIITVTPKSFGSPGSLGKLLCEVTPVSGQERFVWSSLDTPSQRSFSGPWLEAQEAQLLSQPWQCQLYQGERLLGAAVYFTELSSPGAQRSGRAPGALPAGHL

T2: hFc tagged human LAG3 D1-D2 recombinant protein (human, UniProt P18627 23-261)
T2 construct: range 23-261; generated by Chempartner; also called hLAG3 D1-D2; not shown: human IgG Fc tag
T2 sequence (looked up): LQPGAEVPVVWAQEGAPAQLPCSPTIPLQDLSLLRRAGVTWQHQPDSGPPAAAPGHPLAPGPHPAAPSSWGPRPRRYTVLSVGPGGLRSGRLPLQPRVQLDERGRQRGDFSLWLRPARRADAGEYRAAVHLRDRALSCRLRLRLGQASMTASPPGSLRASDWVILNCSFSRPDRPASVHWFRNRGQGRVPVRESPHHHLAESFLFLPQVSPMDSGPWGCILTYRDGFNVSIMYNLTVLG

T3: human LAG3, full length, stably expressed on cells (human, UniProt P18627 23-525)
T3 construct: whole, on cells; also called CHOK1-human LAG3
T3 sequence (looked up): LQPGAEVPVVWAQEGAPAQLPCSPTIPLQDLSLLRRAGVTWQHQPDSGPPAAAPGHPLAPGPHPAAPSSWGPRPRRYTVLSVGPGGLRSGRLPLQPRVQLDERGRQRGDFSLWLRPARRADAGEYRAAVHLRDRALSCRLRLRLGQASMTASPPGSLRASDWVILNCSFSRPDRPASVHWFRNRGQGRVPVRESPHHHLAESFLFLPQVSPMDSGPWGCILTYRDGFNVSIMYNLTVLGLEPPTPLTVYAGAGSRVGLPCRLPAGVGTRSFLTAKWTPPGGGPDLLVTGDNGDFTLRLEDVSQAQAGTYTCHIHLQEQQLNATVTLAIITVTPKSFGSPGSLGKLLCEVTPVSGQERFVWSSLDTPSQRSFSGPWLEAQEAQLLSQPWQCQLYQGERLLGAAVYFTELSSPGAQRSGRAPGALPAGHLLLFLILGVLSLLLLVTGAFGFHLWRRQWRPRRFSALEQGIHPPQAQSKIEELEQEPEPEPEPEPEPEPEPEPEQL

T4: mouse LAG3, full length, stably expressed on CHOK1 cells (mouse, UniProt Q61790 24-521)
T4 construct: whole, on cells
T4 sequence (looked up): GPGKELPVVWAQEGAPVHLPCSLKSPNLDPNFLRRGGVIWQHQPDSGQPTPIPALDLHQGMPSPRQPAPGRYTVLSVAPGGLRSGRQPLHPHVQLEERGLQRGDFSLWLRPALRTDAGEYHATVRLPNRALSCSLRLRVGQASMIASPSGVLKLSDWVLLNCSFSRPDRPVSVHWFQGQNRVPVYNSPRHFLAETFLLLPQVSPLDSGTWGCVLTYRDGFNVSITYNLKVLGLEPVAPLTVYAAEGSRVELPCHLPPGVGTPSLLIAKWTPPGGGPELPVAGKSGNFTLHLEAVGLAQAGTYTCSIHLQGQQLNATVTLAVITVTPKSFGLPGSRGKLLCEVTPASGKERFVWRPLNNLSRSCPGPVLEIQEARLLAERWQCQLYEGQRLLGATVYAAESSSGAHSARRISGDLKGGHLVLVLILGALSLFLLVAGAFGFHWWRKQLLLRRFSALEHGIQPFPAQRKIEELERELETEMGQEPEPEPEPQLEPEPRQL

T5: mFc tagged human LAG3 ECD recombinant protein (human, UniProt P18627 23-450)
T5 construct: extracellular domain; purchased from Biointron; not shown: mouse IgG Fc (mFc) tag
T5 sequence (looked up): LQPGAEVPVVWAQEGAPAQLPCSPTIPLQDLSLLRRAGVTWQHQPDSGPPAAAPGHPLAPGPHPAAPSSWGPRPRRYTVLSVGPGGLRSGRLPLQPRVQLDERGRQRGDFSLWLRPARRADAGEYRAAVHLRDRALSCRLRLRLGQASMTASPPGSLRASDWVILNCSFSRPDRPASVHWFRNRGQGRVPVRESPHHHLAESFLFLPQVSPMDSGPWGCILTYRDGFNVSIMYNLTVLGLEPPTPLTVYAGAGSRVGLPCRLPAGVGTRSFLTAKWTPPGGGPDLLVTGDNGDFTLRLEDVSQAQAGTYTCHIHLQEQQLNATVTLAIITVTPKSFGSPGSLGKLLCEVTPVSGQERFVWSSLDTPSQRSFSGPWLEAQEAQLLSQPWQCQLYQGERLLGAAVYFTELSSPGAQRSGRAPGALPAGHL

T6: human LAG3 ECD recombinant protein (plate coated, tag not stated) (human, UniProt P18627 23-450)
T6 construct: extracellular domain
T6 sequence (looked up): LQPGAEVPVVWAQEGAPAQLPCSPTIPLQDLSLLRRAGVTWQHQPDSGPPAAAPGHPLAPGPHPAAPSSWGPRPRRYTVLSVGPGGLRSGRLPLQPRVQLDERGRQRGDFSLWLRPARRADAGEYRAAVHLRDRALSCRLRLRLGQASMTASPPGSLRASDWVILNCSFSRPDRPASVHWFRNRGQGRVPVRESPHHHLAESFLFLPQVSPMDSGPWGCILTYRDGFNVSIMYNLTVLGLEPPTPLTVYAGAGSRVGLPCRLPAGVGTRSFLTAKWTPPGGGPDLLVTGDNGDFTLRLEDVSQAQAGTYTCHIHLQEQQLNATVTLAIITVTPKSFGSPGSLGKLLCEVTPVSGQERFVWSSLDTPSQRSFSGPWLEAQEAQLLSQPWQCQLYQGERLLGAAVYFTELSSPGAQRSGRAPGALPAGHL


Assays:
[1] = target: T1, hFc tagged human LAG3 ECD recombinant …; assay: competitive ELISA: excess competitor, biotin hFc-LAG3 ECD, coated BAP-050
Protocol: (§1) Competitive ELISA assay was used for epitope binning of the purified hybridoma antibodies. […] After washing, HRP labeled anti-streptavidin (SA) 2nd antibody (Sigma) was added and incubated at 37° C. for 1 hour. Then, 100 μl/well of TMB solution (Biotechnology) was added. After incubation for 15 minutes at room temperature, the reaction was stopped by the addition of 50 μl of 1N HCl. OD 450 nm was read. Competition ratio was calculated.

[2] = target: T1, hFc tagged human LAG3 ECD recombinant …; assay: competitive FACS: hFc-LAG3 ECD binding to Raji cells (MHC II)
Protocol: Competitive FACS assay was used to determine whether the purified hybridoma antibodies can block LAG3 and MHC II interaction. […] After washing, dye labeled anti-human Fc 2nd antibody (Sigma) was added and incubated at 37° C. for 1 hour. Fluorescence intensity was detected.

[3] = target: T2, hFc tagged human LAG3 D1-D2 recombinant …; assay: ELISA, coated hFc-hLAG3 D1-D2
Protocol: Binding activity of the purified hybridoma antibodies against human LAG3 was detected by ELISA assay using hFc tagged human LAG3 D1-D2 recombinant protein. Briefly the antibodies were incubated with ELISA microplate coated antigens at 37° C. for 1 hour. After washing, horseradish peroxidase (HRP) labeled anti-human IgG 2nd Ab (Sigma) was added and incubated at 37° C. for 1 hour. Then, 100 μl/well of TMB solution (Biotechnology) was added. After incubation for 15 minutes at room temperature, the reaction was stopped by the addition of 50 μl of 1N HCl. OD 450 nm was read and EC₅₀ was calculated using GraphPad Prism9.0.

[4] = target: T7, cyno LAG3, full length, stably expressed on 293F cells (cyno); assay: FACS on 293F-cyno LAG3 cells, 20 nM antibody
T7 construct: whole, on cells
Protocol: (§2) Briefly the antibodies were incubated with 2×10⁵ target cells at 4° C. for 1 hour. After washing, fluorescence labeled anti-mouse IgG 2nd antibody (Life Technologies) was added and incubated at 4° C. for 1 hour. Geometric median fluorescence intensity (MFI) was detected and EC₅₀ was calculated using GraphPad Prism9.0.

[5] = target: T3, human LAG3, full length, stably …; assay: FACS on 293F-human LAG3 cells
Protocol: as §2

[6] = target: T1, hFc tagged human LAG3 ECD recombinant …; assay: competitive ELISA: excess competitor, biotin hFc-LAG3 ECD, coated BMS-986016
Protocol: as §1

[7] = target: T4, mouse LAG3, full length, stably …; assay: FACS on CHOK1 cells expressing mouse LAG3
Protocol: as §2

[8] = target: T5, mFc tagged human LAG3 ECD recombinant …; assay: competitive FACS: mFc-LAG3 ECD binding to Raji cells (MHC II)
Protocol: Activity of the purified chimeric antibodies to block LAG3 and MHC II interaction was determined by competitive FACS assay. […] After washing, dye labeled anti-mouse Fc 2nd antibody (Sigma) was added and incubated at 37° C. for 1 hour. Fluorescence intensity was detected.

[9] = target: T3, human LAG3, full length, stably …; assay: FACS on 293F cells stably expressing human LAG3
Protocol: as §2
MFI was detected and EC₅₀ was calculated using GraphPad Prism9.0.

[10] = target: T1, hFc tagged human LAG3 ECD recombinant …; assay: competitive ELISA format II: biotin hFc-LAG3 ECD binding to coated His-FGL1
Protocol: (§3) After washing, HRP labeled anti-His 2nd antibody (Sigma) was added and incubated at 37° C. for 1 hour. Then, 100 μl/well of TMB solution (Biotechnology) was added. After incubation for 15 minutes at room temperature, the reaction was stopped by the addition of 50 μl of 1N HCl. OD 450 nm was read. […] After washing, HRP labeled anti-SA 2nd antibody (Sigma) was added and incubated at 37° C. for 1 hour. Then, 100 μl/well of TMB solution (Biotechnology) was added. After incubation for 15 minutes at room temperature, the reaction was stopped by the addition of 50 μl of 1N HCl. OD 450 nm was read. […] The competition assay of format III is a competitive FACS assay. […] After washing, dye labeled anti-His 2nd antibody (Sigma) was added and incubated at 37° C. for 1 hour. Fluorescence intensity was detected.

[11] = target: T6, human LAG3 ECD recombinant protein …; assay: competitive ELISA format I: His-FGL1 binding to coated LAG3 ECD
Protocol: as §3

% competition [1] [%]	IC50 [2] [nM]	TOP blocking (%) [2] [%]	EC50 [3] [nM]	MFI at 20 nM [4] [MFI]	EC50 [5] [nM]	% competition [6] [%]	binding result [7]	IC50 [8] [nM]	TOP blocking (%) [8] [%]	EC50 [9] [nM]	TOP MFI [9]	IC50 [10] [nM]	TOP blocking (%) [10] [%]	Blocking ratio at 66.7 nM (%) [11] [%]	Binder
6.4	4.2	100	0.07	142	1.12	33.5	no binding	–	–	–	–	–	–	–	Antibody 038 (antibody, V domains shown, mouse hybridoma antibody) VH: DVQVQESGPGLVKPSQSLSLTCSVTGYSITSGYYWNWIRQFPGNKLEWMGYISYDGSNEYNLSLKNRLSITRDTSKNQFFLKLNSVTTEDTATYYCAREEDGYYGGMDYWGQGTSVTVSS VL: DIVMTQSHKFMSASVGVRVSITCRASQDVDTAVAWYQQKPGQSPKLLIYWASTRHTGVPDRFTGSGSGTDFTLTISNVQSEDLADYFCQQYSSYPYTFGGGTKLEIK
–	–	–	–	–	–	–	–	3.6	90.4	1.3	249	35.9	12.6	14	047c (antibody, human IgG4, V domains shown, human IgG4 S228P / kappa chimeric antibody; also called chimeric antibody 047; not shown: human kappa light chain constant region (pcDNA3.4-hIgGk vector)) VH: QVQLQQSGAELARPGASVKLSCKASGYSFTSYGVNWVKQRTGQGLEWIGEIYPRSGNTYYNERFGDKATLTADKSSSTAYMEIRSLTSEDSAVYFCARGGTYDGYYYAMDYWGQGTSVTVSS VL: DIVLTQSPASLAVSLGQRATISCRASESVDNFGSSFMHWYQQKPGQAPKLLIYRASNLESGIPARFSGSGSRTDFTLTINPVETDDVATYYCQQVNKDPRTFGGGTKLEIK
57.1	4	98.6	0.02	105	5.52	6.9	no binding	–	–	–	–	–	–	–	Antibody 021 (antibody, V domains shown, mouse hybridoma antibody) VH: DIQLQESGPGLVKPSQSLSLTCSVTGYSITSGYYWNWIRQFPGNKLEWMGDISYDGGNNYNPSLKNRISITRDTSKNQFFLKLNSVTTEDTATYYCARDITLTGAMDYWGQGTSVTVSS VL: DIVLTQSPASLAVSLGQRATISCRASESVDNYGISFMHWYQQRPGQPPKLLIYRASNLESGIPARFSGSGSRTDFTLTINPVETDDVATYYCQQSNKDPYTFGGGTKLEIK
–	–	–	–	–	–	–	–	4.5	91.2	2	302	6.13	78.3	26.7	027c (antibody, human IgG4, V domains shown, human IgG4 S228P / kappa chimeric antibody; also called chimeric antibody 027; not shown: human kappa light chain constant region (pcDNA3.4-hIgGk vector)) VH: EVKILQSGGGLVQPGGSLKLSCAASGIDFSRYWMSWVRRTPGKGLEWIGEINPDSSTINYAPSLKDKFIISRDNAKNTLYLQMSKVRSEDTALYYCARLGIIPTYHYGSSGYYYAMDYWGQGTSVTVSS VL: DVLMTQTPLSLPVSLGDRASISCRSSQTIVHGNGHTSLEWYLQKPGQSPQLLIYKVSNRFSGVPDRFSASGSGTDFTLTISRVEAEDLGVYYCFQVSHVPYTFGGGTKLEIK
